Tests used:
human DLL3-his protein = target: T1, human DLL3-his protein (human, UniProt Q9NYJ7 27-492); assay: ELISA
T1 construct: also called human DLL3 protein; DLL3 antigen protein; not shown: His tag
T1 sequence: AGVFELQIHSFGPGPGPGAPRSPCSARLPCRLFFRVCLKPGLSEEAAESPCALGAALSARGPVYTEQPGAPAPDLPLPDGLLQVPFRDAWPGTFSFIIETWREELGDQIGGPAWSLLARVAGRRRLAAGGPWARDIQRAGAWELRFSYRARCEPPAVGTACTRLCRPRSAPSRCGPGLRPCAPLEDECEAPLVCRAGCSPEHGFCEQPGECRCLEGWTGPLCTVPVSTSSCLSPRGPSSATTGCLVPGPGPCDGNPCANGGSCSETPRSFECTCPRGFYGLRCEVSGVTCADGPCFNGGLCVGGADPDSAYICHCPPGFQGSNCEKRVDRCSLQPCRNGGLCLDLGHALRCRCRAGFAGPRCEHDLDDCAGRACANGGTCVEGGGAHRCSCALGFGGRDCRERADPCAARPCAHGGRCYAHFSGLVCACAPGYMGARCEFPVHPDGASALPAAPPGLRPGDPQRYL

[1] = target: T2, monkey DLL3 on CHO K1-cyno DLL3 cells (cynomolgus monkey); assay: FACS, CHO K1-cyno DLL3 cells
T2 construct: also called monkey DLL3 recombinant cell line
T2 chain: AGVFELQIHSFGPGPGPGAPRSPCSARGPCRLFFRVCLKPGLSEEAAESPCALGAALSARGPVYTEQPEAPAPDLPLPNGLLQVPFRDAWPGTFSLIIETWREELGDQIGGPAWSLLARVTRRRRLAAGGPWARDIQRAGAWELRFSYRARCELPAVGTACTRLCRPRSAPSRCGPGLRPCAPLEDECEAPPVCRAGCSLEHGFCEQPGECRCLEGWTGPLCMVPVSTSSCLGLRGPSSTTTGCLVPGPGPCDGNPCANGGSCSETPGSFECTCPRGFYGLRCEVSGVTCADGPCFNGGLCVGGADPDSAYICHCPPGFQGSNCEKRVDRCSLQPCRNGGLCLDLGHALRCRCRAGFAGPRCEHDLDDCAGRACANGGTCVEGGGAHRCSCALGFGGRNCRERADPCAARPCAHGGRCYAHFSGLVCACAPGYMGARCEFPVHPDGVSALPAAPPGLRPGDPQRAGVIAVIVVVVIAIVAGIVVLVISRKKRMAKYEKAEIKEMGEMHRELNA

[2] = target: T3, human DLL3 endogenously expressed on SHP77 and NCI-H82 cells (human, UniProt Q9NYJ7 27-618); assay: FACS, SHP77 and NCI-H82 cells
T3 construct: whole, on cells; cells endogenously expressing DLL3; also called SHP77 cells; SHP-77 cells
T3 sequence (looked up): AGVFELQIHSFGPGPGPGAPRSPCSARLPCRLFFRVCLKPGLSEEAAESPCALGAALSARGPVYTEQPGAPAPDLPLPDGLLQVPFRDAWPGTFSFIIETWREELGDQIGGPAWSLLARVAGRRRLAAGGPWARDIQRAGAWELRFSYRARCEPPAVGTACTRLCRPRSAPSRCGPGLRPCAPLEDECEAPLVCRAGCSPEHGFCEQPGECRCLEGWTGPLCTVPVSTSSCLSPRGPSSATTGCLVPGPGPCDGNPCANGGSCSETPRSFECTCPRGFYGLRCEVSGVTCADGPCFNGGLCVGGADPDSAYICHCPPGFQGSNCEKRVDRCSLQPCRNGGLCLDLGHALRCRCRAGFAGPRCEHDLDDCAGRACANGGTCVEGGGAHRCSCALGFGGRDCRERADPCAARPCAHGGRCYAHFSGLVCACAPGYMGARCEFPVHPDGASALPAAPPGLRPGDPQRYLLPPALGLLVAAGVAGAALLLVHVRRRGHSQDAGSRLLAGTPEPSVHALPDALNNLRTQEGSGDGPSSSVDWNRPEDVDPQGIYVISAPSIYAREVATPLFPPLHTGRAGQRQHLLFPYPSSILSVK

[3] = target: T4, mouse DLL3 on CHO K1-mDLL3 cells (mouse, UniProt O88516 33-490); assay: FACS, CHO K1-mDLL3 cells
T4 construct: also called mouse DLL3 recombinant cell line
T4 sequence: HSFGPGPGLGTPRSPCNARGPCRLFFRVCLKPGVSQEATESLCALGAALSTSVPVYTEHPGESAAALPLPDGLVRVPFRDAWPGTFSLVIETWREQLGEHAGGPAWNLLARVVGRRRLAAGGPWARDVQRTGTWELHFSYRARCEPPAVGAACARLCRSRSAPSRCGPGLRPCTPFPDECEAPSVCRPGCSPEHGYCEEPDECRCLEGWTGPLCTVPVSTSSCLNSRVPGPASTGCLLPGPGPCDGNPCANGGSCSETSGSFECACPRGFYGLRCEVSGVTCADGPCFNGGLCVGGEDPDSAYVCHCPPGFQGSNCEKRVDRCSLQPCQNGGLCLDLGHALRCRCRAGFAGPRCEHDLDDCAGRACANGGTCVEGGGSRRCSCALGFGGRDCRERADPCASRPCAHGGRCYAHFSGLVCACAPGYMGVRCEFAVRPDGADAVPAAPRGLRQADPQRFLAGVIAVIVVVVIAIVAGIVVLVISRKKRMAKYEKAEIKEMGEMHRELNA

[4] = target: T5, human DLL3 on CHO-K1 hDLL3 cells (human, UniProt Q9NYJ7 27-492); assay: FACS, CHO-K1 hDLL3 cells
T5 construct: also called human DLL3 recombinant cell line
T5 sequence: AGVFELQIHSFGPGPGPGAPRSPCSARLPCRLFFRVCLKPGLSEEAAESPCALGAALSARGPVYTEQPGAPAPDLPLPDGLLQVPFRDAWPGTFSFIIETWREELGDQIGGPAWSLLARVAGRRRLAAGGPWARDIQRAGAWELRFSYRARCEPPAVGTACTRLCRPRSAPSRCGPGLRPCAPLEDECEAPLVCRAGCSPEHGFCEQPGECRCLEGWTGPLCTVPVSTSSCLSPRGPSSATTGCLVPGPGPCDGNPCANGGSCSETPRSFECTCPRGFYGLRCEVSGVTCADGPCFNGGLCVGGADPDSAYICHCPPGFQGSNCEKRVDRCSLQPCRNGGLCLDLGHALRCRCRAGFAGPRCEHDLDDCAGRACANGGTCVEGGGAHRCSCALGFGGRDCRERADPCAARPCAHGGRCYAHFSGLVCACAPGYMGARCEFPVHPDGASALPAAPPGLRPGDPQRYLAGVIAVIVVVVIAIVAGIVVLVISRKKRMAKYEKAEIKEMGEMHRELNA

Measured: binding result

B1: Hab014VL1VH2-hFc (Fc fusion)
scFv (part 1 of 2): DIQMTQSPSSLSASVGDRVTITCKASEDIYNRLAWYQQKPGKVPKLLISGATSLETGVPSRFSGSGSGTDFTLTISSLQPEDVATYYCQQYWSLPWTFGGGTKVEIK
scFv (part 2 of 2): EVQLVQSGAEVKKPGASVKVSCKASGYTFTDYYMNWVRQAPGQRLEWMGDINPNHGDTGYNQKFTGRVTLTVDKSASTAYMELSSLRSEDTAVYYCARNFFYYGTTYGWYFDVWGQGTTVTVSS
notes: humanized mab014, VL-linker-VH-human IgG1 Fc; not shown: linker; human IgG1 Fc fragment
binds: all assays above

B2: Hab014VL3VH1-hFc (Fc fusion)
scFv (part 1 of 2): DIVMTQSPDSLAVSLGERATINCKASEDIYNRLAWYQQKPGQTPKLLISGATSLETGVPDRFSGSGSGKDFTLTISSLQAEDVAVYYCQQYWSLPWTFGGGTKVEIK
scFv (part 2 of 2): EVQLVQSGAEVKKPGASVKVSCKASGYTFTDYYMNWVRQAPGQRLEWMGDINPNHGDTGYNQKFTGRVTITVDKSASTAYMELSSLRSEDTAVYYCARNFFYYGTTYGWYFDVWGQGTTVTVSS
notes: as for B1
binds: all assays above

B3: Hab014VL2VH1-hFc (Fc fusion)
scFv (part 1 of 2): DIQMTQSPSSLSASVGDRVTITCKASEDIYNRLAWYQQKPGKVPKLLISGATSLETGVPSRFSGSGSGKDFTLTISSLQPEDVATYYCQQYWSLPWTFGGGTKVEIK
scFv (part 2 of 2): EVQLVQSGAEVKKPGASVKVSCKASGYTFTDYYMNWVRQAPGQRLEWMGDINPNHGDTGYNQKFTGRVTITVDKSASTAYMELSSLRSEDTAVYYCARNFFYYGTTYGWYFDVWGQGTTVTVSS
notes: as for B1
binds: all assays above

B4: Hab009VL3aVH1-hFc (Fc fusion)
scFv (part 1 of 2): DIVMTQSPLSLPVTPGEPASISCRASQTISDYLHWYLQKSHQSPQLLIKYASQSISGVPDRFSGSGSGTDFTLKISRVEAEDVGVYYCQQGHSFPLTFGQGTKLEIK
scFv (part 2 of 2): EVQLVQSGAEVKKPGASVKVSCKASGYTFTSYWMHWVRQAPGQRLEWMGTIYPGNSDTRYNQKFKDRVTITADTSASTAYMELSSLRSEDTAVYYCTRSYDYGDLDYWGQGTTVTVSS
notes: humanized mab009, VL-linker-VH-human IgG1 Fc; not shown: linker; human IgG1 Fc fragment
binds: all assays above

B5: Hab015VL4VH1a-hFc (Fc fusion)
scFv (part 1 of 2): NIVLTQSPATLSLSPGERATLSCKASENVGTYVSWFQQKPGQSPRLLIYGASNRYTGIPARFSGSGSGTDFTLTISSLEPEDFAVYYCGQFYSFPSTFGGGTKVEIK
scFv (part 2 of 2): EVQLVESGGGLVKPGGSLRLSCAASGITFSNFWMNWVRQAPGKGLEWVGQIRLKSDDYATHYAESVKGRFTISREDSKNTVYLQMNSLKTEDTAVYYCTTGYYFDYWGQGTTVTVSS
notes: humanized mab015, VL-linker-VH-human IgG1 Fc; also called Hab015L4H1a; not shown: linker; human IgG1 Fc fragment
binds: all assays above

B6: Hab015VL4VH6a-hFc (Fc fusion)
scFv (part 1 of 2): NIVLTQSPATLSLSPGERATLSCKASENVGTYVSWFQQKPGQSPRLLIYGASNRYTGIPARFSGSGSGTDFTLTISSLEPEDFAVYYCGQFYSFPSTFGGGTKVEIK
scFv (part 2 of 2): EVQLVESGGGLVKPGGSLRLSCAASGITFSNFWMNWVRQAPEKGLEWVGQIRLKSDDYATHYAESVKGRFTISREDSKNTVYLQMNSLKTEDTAVYYCTTGYYFDYWGQGTTVTVSS
notes: humanized mab015, VL-linker-VH-human IgG1 Fc; also called Hab015L4H6a; not shown: linker; human IgG1 Fc fragment
binds: all assays above

B7: Hab015VL4VH5a-hFc (Fc fusion)
scFv (part 1 of 2): NIVLTQSPATLSLSPGERATLSCKASENVGTYVSWFQQKPGQSPRLLIYGASNRYTGIPARFSGSGSGTDFTLTISSLEPEDFAVYYCGQFYSFPSTFGGGTKVEIK
scFv (part 2 of 2): EVQLVESGGGLVKPGGSLRLSCVASGITFSNFWMNWVRQAPGKGLEWVGQIRLKSDDYATHYAESVKGRFTISREDSKNTVYLQMNSLKTEDTAVYYCTTGYYFDYWGQGTTVTVSS
notes: humanized mab015, VL-linker-VH-human IgG1 Fc; also called Hab015L4H5a; not shown: linker; human IgG1 Fc fragment
binds: all assays above

B8: Hab015VL4VH1b-hFc (Fc fusion)
scFv (part 1 of 2): NIVLTQSPATLSLSPGERATLSCKASENVGTYVSWFQQKPGQSPRLLIYGASNRYTGIPARFSGSGSGTDFTLTISSLEPEDFAVYYCGQFYSFPSTFGGGTKVEIK
scFv (part 2 of 2): EVQLVESGGGLVKPGGSLRLSCAASGITFSNFWMNWVRQAPGKGLEWVGQIRLKSEDYATHYAESVKGRFTISREDSKNTVYLQMNSLKTEDTAVYYCTTGYYFDYWGQGTTVTVSS
notes: humanized mab015, VL-linker-VH-human IgG1 Fc; also called Hab015L4H1b; not shown: linker; human IgG1 Fc fragment
binds: all assays above

Reference: patent EP4786492A1 (Simcere Zaiming Pharmaceutical Co., Ltd., dated 2026)
